Starred links: 1 amine or outer side, 2 acyl side, 3 side chain; linkers in the order of their positions; H or OH if unused. Positions of bridges follow the written chain, without caps; N, C: chain ends. Non-standard residues stand in square brackets, D forms with d. Primed or numbered codes have the meaning given here. No end group written: not given here. *: point of attachment. TCAZ″ = 1,1',1''-(1,4,7-triazonane-1,4,7-triyl)tris(2-chloroethan-1-one) scaffold, O=C(C[*:1])N1CCN(C(=O)C[*:2])CCN(C(=O)C[*:3])CC1; TCAZ = 1,1',1''-(1,4,7-triazonane-1,4,7-triyl)tris(2-chloroethan-1-one); TATA = O=C(CC[*:1])N1CN(C(=O)CC[*:2])CN(C(=O)CC[*:3])C1; 1Nal = N[C@@H](Cc1cccc2ccccc12)C(=O)O; Pent4ynoyl = C#CCCC(=O)*
Key:
[1] = target: T1, Recombinant biotinylated human P-Selectin protein (human, UniProt P16109 42-771, limits assumed, biotinylated (site not stated)); assay: SPR (Biacore), biotinylated human P-selectin captured on streptavidin chip, peptide as analyte
T1 sequence (looked up): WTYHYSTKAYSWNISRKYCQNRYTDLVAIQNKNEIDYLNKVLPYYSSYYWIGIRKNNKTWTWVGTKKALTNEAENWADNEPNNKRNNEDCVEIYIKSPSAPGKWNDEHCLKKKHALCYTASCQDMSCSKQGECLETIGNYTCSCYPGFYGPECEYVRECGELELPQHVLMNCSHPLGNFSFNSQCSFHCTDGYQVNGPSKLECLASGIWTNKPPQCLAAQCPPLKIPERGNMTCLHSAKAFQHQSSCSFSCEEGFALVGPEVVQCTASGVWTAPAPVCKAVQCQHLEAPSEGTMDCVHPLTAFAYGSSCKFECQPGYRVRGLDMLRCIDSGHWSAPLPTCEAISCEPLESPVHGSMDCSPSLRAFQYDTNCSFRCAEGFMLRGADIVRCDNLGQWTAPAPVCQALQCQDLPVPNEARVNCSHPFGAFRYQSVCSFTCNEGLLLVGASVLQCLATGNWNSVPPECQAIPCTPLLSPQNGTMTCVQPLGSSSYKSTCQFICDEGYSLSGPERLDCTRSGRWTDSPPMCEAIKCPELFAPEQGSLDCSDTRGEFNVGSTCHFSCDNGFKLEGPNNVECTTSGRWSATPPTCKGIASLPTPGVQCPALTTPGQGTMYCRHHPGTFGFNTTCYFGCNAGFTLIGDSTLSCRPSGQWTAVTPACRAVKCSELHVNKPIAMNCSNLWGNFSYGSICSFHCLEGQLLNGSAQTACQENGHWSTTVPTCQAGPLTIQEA
Protocol: (§1) Biacore experiments were performed to determine ka (M−1s−1), kd (s−1), KD (nM) values of monomeric peptides binding to human Selectin proteins. Recombinant biotinylated human P-Selectin protein was used. For analysis of binding, either a Biacore 3000 or 5200 instrument was used with a CMS sensor chip (GE Healthcare). For sensor chip surface preparation, streptavidin was immobilized on the chip using standard amine-coupling chemistry at 25° C. with HBS-N (10 mM HEPES, 0.15 M NaCl, pH 7.4) as the running buffer. The carboxymethyl dextran surface was activated with a 12 min injection of a 1:1 ratio of 0.4 M 1-ethyl-3-(3-dim ethyl aminopropyl) carbodiimide hydrochloride (EDC)/0.1 M N-hydroxy succinimide (NHS) at a flow rate of 10 μl/min. For capture of streptavidin, protein was diluted to 0.2 mg/ml in 10 mM sodium acetate (pH 4.5) and captured by injecting 70 μl onto the activated chip surface. Residual activated groups were blocked with a 7 min injection of 1 M ethanolamine (pH 8.5). Biotinylated protein stock was diluted 1:100 in HBS-N and captured on one flow cell at 5 μl/min to a level of 1000-1500 RU. Buffer was changed to PBS/0.05% Tween 20 and a dilution series of the peptides was prepared in this buffer with a final DMSO concentration of 0.5%. […] In all cases a titration was performed with either seven 2-fold dilutions or five 3-fold dilutions. The SPR analysis was run at 25° C. with a flow rate of 50-80 μl/min with 60 seconds association and a suitable disassociation period (100-900 seconds). Data were corrected for DMSO excluded volume effects. All data were double-referenced for blank injections and reference surface using standard processing procedures and data processing and kinetic fitting were performed using Scrubber software, version 2.0c (BioLogic Software). Data were fitted using mass transport model allowing for mass transport effects where appropriate.

[2] = target: T1, Recombinant biotinylated human …; assay: inhibition of 5 nM P-selectin binding to HL-60 cells (PSGL1), mirrorball cytometer, geomean of n=3
Protocol: Bicycle test samples, SelG1 (Crizanlizumab) were serially diluted maintaining 0.5% DMSO in assay buffer (25 mM HEPES, 121 mM NaCl, 5.4 mM KCl, 0.8 mM MgCl₂, 1.8 mM CaCl₂), 6 mM NaHCO₂, 5.5 mM glucose, 1% BSA, pH7.4) and transferred to 384 well clear bottom plates (Corning, 3712) with a final volume of 6 μL. […], of P-Selectin in imaging buffer (25 mM HEPES, 121 mM NaCl, 5.4 mM KCl, 0.8 mM MgCl₂, 1.8 mM CaCl₂), 6 mM NaHCO₂, 5.5 mM glucose, pH7.4) was added to give a 5 nM final concentration and incubated at room temperature for 15 minutes. HL-60 cells (ATCC, CCL-240) mixed with 1 μg/mL far red labelled wheat germ agglutinin (WGA, ThermoFisher W21404) and 1 μg/mL AlexaFluor 488-streptavidin (Invitrogen S11223) were added to the plate and incubated for 2 hours at room temperature in the absence of light. Staining and antibody binding were quantified by simultaneously scanning the microplates with 488 nm and 640 nm lasers on a mirrorball microplate cytometer, AF488 on FL2 triggering on AF647-WGA on FL4. Data was analysed in Dotmatics, using a four parameter logistic fit to generate IC50 values and % response. Percent inhibition was calculated using 100−% response at top concentration.

[3] = target: T1, Recombinant biotinylated human …; assay: SPR (Biacore), biotinylated human P-selectin captured on streptavidin chip, peptide as analyte; peptide BCY5458, a separate peptide number
Protocol: as §1, with “The SPR analysis was run at 25° C. with a flow rate of 50-80 μl/min with 60 seconds association and a suitable disassociation period (100-900 seconds). Data were corrected for DMSO excluded volume effects. All data were double-referenced for blank injections and reference surface using standard processing procedures and data processing and kinetic fitting were performed using Scrubber software, version 2.0c (BioLogic Software). Data were fitted using mass transport model allowing for mass transport effects where appropriate.” left out

[4] = target: T1, Recombinant biotinylated human …; assay: SPR (Biacore), biotinylated human P-selectin captured on streptavidin chip, peptide as analyte; peptide BCY5459, a separate peptide number
Protocol: as §1, with “The SPR analysis was run at 25° C. with a flow rate of 50-80 μl/min with 60 seconds association and a suitable disassociation period (100-900 seconds). Data were corrected for DMSO excluded volume effects. All data were double-referenced for blank injections and reference surface using standard processing procedures and data processing and kinetic fitting were performed using Scrubber software, version 2.0c (BioLogic Software). Data were fitted using mass transport model allowing for mass transport effects where appropriate.” left out

[5] = target: T1, Recombinant biotinylated human …; assay: SPR (Biacore), biotinylated human P-selectin captured on streptavidin chip, peptide as analyte; peptide BCY5462, a separate peptide number
Protocol: as §1, with “The SPR analysis was run at 25° C. with a flow rate of 50-80 μl/min with 60 seconds association and a suitable disassociation period (100-900 seconds). Data were corrected for DMSO excluded volume effects. All data were double-referenced for blank injections and reference surface using standard processing procedures and data processing and kinetic fitting were performed using Scrubber software, version 2.0c (BioLogic Software). Data were fitted using mass transport model allowing for mass transport effects where appropriate.” left out

[6] = target: T1, Recombinant biotinylated human …; assay: SPR (Biacore), biotinylated human P-selectin captured on streptavidin chip, peptide as analyte; peptide BCY5463, a separate peptide number
Protocol: as §1, with “The SPR analysis was run at 25° C. with a flow rate of 50-80 μl/min with 60 seconds association and a suitable disassociation period (100-900 seconds). Data were corrected for DMSO excluded volume effects. All data were double-referenced for blank injections and reference surface using standard processing procedures and data processing and kinetic fitting were performed using Scrubber software, version 2.0c (BioLogic Software). Data were fitted using mass transport model allowing for mass transport effects where appropriate.” left out

[7] = target: T1, Recombinant biotinylated human …; assay: SPR (Biacore), biotinylated human P-selectin captured on streptavidin chip, peptide as analyte; peptide BCY12257, a separate peptide number
Protocol: as §1, with “The SPR analysis was run at 25° C. with a flow rate of 50-80 μl/min with 60 seconds association and a suitable disassociation period (100-900 seconds). Data were corrected for DMSO excluded volume effects. All data were double-referenced for blank injections and reference surface using standard processing procedures and data processing and kinetic fitting were performed using Scrubber software, version 2.0c (BioLogic Software). Data were fitted using mass transport model allowing for mass transport effects where appropriate.” left out

[8] = target: T1, Recombinant biotinylated human …; assay: SPR (Biacore), biotinylated human P-selectin captured on streptavidin chip, peptide as analyte; peptide BCY12259, a separate peptide number
Protocol: as §1, with “The SPR analysis was run at 25° C. with a flow rate of 50-80 μl/min with 60 seconds association and a suitable disassociation period (100-900 seconds). Data were corrected for DMSO excluded volume effects. All data were double-referenced for blank injections and reference surface using standard processing procedures and data processing and kinetic fitting were performed using Scrubber software, version 2.0c (BioLogic Software). Data were fitted using mass transport model allowing for mass transport effects where appropriate.” left out

[9] = target: T1, Recombinant biotinylated human …; assay: SPR (Biacore), biotinylated human P-selectin captured on streptavidin chip, peptide as analyte; peptide BCY12261, a separate peptide number
Protocol: as §1, with “The SPR analysis was run at 25° C. with a flow rate of 50-80 μl/min with 60 seconds association and a suitable disassociation period (100-900 seconds). Data were corrected for DMSO excluded volume effects. All data were double-referenced for blank injections and reference surface using standard processing procedures and data processing and kinetic fitting were performed using Scrubber software, version 2.0c (BioLogic Software). Data were fitted using mass transport model allowing for mass transport effects where appropriate.” left out

[10] = target: T1, Recombinant biotinylated human …; assay: SPR (Biacore), biotinylated human P-selectin captured on streptavidin chip, peptide as analyte; peptide BCY10194 (A-(SEQ ID NO: 6)-A)
Protocol: as §1, with “The SPR analysis was run at 25° C. with a flow rate of 50-80 μl/min with 60 seconds association and a suitable disassociation period (100-900 seconds). Data were corrected for DMSO excluded volume effects. All data were double-referenced for blank injections and reference surface using standard processing procedures and data processing and kinetic fitting were performed using Scrubber software, version 2.0c (BioLogic Software). Data were fitted using mass transport model allowing for mass transport effects where appropriate.” left out

[11] = target: T1, Recombinant biotinylated human …; assay: SPR (Biacore), biotinylated human P-selectin captured on streptavidin chip, peptide as analyte; peptide BCY5454, a separate peptide number
Protocol: as §1, with “The SPR analysis was run at 25° C. with a flow rate of 50-80 μl/min with 60 seconds association and a suitable disassociation period (100-900 seconds). Data were corrected for DMSO excluded volume effects. All data were double-referenced for blank injections and reference surface using standard processing procedures and data processing and kinetic fitting were performed using Scrubber software, version 2.0c (BioLogic Software). Data were fitted using mass transport model allowing for mass transport effects where appropriate.” left out

ACDAD[1Nal]CDVPSLPCA-NH2 (linker 2-7-14 via TCAZ, Monomeric bicyclic peptide) [BCY12027]
Kd [1]: 5.36 nM
IC50 [2]: > 36.8 nM
Inhibition at top concentration (%) [2]: 36%

B1: BCY5458 (peptide)
peptide: Pent4ynoyl-ACYMEWCDVTDYGCA-NH2
modifications: linker 2-7-14 via TATA; also: trimer of 3 copies via central hinge B (TCA) and spacer S1A n=10 joined to N-terminal Pya
Kd [3]: 400 nM

B2: BCY5459 (peptide)
peptide: Pent4ynoyl-ACYMEWCDVTDYGCA-NH2
modifications: linker 2-7-14 via TATA; also: trimer of 3 copies via central hinge B (TCA) and spacer S1A n=23 joined to N-terminal Pya
Kd [4]: 169 nM

B3: BCY5462 (peptide)
peptide: Pent4ynoyl-ACYMEWCDVTDYGCA-NH2
modifications: linker 2-7-14 via TATA; also: tetramer of 4 copies via central hinge A (Tet) and spacer S1A n=10 joined to N-terminal Pya
Kd [5]: 88 nM

B4: BCY5463 (peptide)
peptide: Pent4ynoyl-ACYMEWCDVTDYGCA-NH2
modifications: linker 2-7-14 via TATA; also: tetramer of 4 copies via central hinge A (Tet) and spacer S1A n=23 joined to N-terminal Pya
Kd [6]: 53 nM

B5: BCY12257 (peptide)
peptide: ACDADWCDVPSLPCAK(Pent4ynoyl)-NH2
modifications: linker 2-7-14 via TCAZ″; not fully specified; also: tandem dimer of 2 copies via central hinge C (GTA) and spacer S1A n=23 joined to K(Pya)
Kd [7]: 11.6 nM

ACDADWCDVPSLPCA-NH2 (linker 2-7-14 via TCAZ″, Monomeric bicyclic peptide) [BCY11648]
Kd [1]: 128 nM
IC50 [2]: > 117 nM
Inhibition at top concentration (%) [2]: 37%

B6: BCY12259 (peptide)
peptide: ACDADWCDVPSLPCAK(Pent4ynoyl)-NH2
modifications: linker 2-7-14 via TCAZ″; not fully specified; also: trimer of 3 copies via central hinge B (TCA) and spacer S1A n=23 joined to K(Pya)
Kd [8]: 0.233 nM

B7: BCY12261 (peptide)
peptide: ACDADWCDVPSLPCAK(Pent4ynoyl)-NH2
modifications: linker 2-7-14 via TCAZ″; not fully specified; also: tetramer of 4 copies via central hinge A (Tet) and spacer S1A n=23 joined to K(Pya)
Kd [9]: 0.019 nM

B8: SelG1 (Crizanlizumab) (antibody, V domains shown)
VH: QVQLVQSGAEVKKPGASVKVSCKVSGYTFTSYDINWVRQAPGKGLEWMGWIYPGDGSIKYNEKFKGRVTMTVDKSTDTAYMELSSLRSEDTAVYYCARRGEYGNYEGAMDYWGQGTLVTVSS
VL: DIQMTQSPSSLSASVGDRVTITCKASQSVDYDGHSYMNWYQQKPGKAPKLLIYAASNLESGVPSRFSGSGSGTDFTLTISSLQPEDFATYYCQQSDENPLTFGGGTKVEIK
IC50 [2]: 4.75 nM
Inhibition at top concentration (%) [2]: 96%

B9: BCY9717 (peptide)
peptide: Ac-CYMEWCDVTDYGC-NH2
modifications: linker 1-6-13 via TATA
notes: Monomeric bicyclic peptide; also called BCY09717
Kd [1]: 7600 nM
IC50 [2]: > 10900 nM
Inhibition at top concentration (%) [2]: 20%

Ac-ACYME[1Nal]CDVTDYGCA-NH2 (linker 2-7-14 via TATA, Monomeric bicyclic peptide) [BCY11279]
Kd [1]: 690 nM
IC50 [2]: > 3540 nM
Inhibition at top concentration (%) [2]: 24%

ACYMEWCDVTDYGCA-NH2 (linker 2-7-14 via TATA, Monomeric bicyclic peptide) [BCY10194]
Kd [10]: 9500 nM

B10: BCY5454 (peptide)
peptide: Pent4ynoyl-ACYMEWCDVTDYGCA-NH2
modifications: linker 2-7-14 via TATA; also: tandem dimer of 2 copies via central hinge C (GTA) and spacer S1A n=10 joined to N-terminal Pya
Kd [11]: 400 nM

— patent publication US20220339289A1 (Bicycle, published 2022)
